Results taken from US20240327538A1 (AMUNIX PHARMACEUTICALS, published 2024).
Blank lines part the entries; values can stand above or below the binder they belong to.

Columns and labels:
human PSMA-Fc [1] = molecular target: T1, human PSMA-Fc (human, UniProt Q04609 44-750, limits assumed); assay: linker length / domain swap comparison
T1 construct: also called Human PSMA-Fc fusions; not shown: Fc part

human PSMA-Fc [2] = molecular target: T1, human PSMA-Fc; assay: Octet
[3] = molecular target: T2, cynomolgus monkey CD3 epsilon (cynomolgus monkey, UniProt Q95LI5 22-117, limits assumed); assay: Octet
T2 construct: also called cyCD3e
T2 sequence (looked up): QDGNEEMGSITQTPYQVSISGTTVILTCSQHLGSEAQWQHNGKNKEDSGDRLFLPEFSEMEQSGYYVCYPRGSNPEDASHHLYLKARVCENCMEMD

human CD3 epsilon = molecular target: T3, human CD3 epsilon (human, UniProt P07766 23-126, limits assumed); assay: Octet
T3 construct: also called huCD3e
T3 sequence (P07766 23-126 limits assumed): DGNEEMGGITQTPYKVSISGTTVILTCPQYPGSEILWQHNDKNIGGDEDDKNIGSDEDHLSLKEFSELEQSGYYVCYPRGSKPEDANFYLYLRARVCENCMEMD

human PSMA [4] = molecular target: T4, human PSMA (human, UniProt Q04609 44-750, limits assumed); assay: Octet
T4 construct: also called huPSMA
T4 sequence (Q04609 44-750 limits assumed): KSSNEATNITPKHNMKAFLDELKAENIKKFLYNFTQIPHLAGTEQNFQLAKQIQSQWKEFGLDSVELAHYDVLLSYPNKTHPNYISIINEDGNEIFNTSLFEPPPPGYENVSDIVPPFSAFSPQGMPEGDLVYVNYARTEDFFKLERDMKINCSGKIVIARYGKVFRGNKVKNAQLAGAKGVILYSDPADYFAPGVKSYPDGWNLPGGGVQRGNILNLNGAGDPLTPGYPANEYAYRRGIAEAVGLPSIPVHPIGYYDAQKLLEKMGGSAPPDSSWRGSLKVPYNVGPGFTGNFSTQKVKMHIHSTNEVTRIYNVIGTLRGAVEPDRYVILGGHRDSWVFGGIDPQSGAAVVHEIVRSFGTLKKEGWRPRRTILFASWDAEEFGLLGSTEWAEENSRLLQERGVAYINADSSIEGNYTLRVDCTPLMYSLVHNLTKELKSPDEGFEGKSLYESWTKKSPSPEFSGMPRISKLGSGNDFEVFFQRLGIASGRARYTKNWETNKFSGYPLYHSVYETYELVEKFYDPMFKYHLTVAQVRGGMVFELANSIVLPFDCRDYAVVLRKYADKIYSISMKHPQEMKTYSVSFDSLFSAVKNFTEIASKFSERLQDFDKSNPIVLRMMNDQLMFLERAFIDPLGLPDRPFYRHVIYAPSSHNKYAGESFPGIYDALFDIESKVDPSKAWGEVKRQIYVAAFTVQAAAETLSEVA

cynomolgus monkey PSMA = molecular target: T5, cynomolgus monkey PSMA (cynomolgus monkey, UniProt A0A2K5VNZ0 44-750); assay: Octet
T5 construct: also called cyPSMA; Cyno PSMA

[5] = molecular target: T6, hPSMA antigen (with an added HHHHHH sequence) (human, UniProt Q04609 44-750); assay: in vitro screening of VHH from immunized llamas
T6 construct: also called human PSMA (hPSMA)
T6 sequence (Q04609 other isoform, or with tags, fused parts or gaps limits assumed): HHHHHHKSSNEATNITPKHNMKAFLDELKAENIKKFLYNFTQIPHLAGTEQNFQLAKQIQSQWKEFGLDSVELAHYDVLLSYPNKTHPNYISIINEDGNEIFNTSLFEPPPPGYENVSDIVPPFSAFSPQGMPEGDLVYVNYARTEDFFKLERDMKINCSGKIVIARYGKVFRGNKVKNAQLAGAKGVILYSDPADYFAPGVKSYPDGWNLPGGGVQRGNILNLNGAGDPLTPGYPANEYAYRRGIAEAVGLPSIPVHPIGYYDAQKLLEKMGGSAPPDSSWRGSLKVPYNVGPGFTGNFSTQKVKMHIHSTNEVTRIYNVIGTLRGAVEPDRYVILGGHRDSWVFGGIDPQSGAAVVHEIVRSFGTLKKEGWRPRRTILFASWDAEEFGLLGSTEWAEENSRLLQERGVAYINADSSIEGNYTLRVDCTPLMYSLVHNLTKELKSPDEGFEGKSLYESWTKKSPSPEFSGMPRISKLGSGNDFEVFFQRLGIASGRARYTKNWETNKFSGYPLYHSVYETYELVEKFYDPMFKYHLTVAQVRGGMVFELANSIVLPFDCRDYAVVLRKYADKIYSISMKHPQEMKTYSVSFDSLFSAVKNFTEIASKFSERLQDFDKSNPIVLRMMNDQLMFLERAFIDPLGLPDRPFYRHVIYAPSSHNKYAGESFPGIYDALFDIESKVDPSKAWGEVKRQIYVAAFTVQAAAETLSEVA

human PSMA [6] = molecular target: T4, human PSMA; assay: BLI or SPR
Source text: The values are reported below in Table 19 for PSMA and Table 20 for CD3.

Human CD3 = molecular target: T7, Human CD3 (human, UniProt P07766 23-126); assay: BLI or SPR
T7 construct: not shown: A CD3 delta partner cannot be excluded
T7 sequence (P07766 23-126 limits assumed): as the sequence (P07766 23-126 limits assumed) above

Cyno CD3 = molecular target: T8, Cyno CD3 (cynomolgus monkey, UniProt Q95LI5 22-117); assay: BLI or SPR
T8 construct: also called cynomolgus monkey CD3; not shown: A CD3 delta partner cannot be excluded
T8 sequence: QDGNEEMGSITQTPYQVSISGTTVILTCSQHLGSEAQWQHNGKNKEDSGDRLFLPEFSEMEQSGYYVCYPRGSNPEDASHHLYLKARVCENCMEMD

human PSMA-Fc [7] = molecular target: T1, human PSMA-Fc; assay: Octet, human PSMA-Fc
Method: Binding affinity of select PSMA PTE variants was tested by Octet.

T1 sequence (Q04609 44-750 limits assumed): as the sequence (Q04609 44-750 limits assumed) above

B3: uTCE from AC3445 (bispecific antibody)
chain: LTGPGTSESATPESQVQLVESGGGVVQPGRSLRLSCAASGRTFGIYVMGWVRQAPGKEREFVAAISWSGSNRKVSDSVKGRFTISRDNSKNTLYLQMNSLRAEDTAVYYCAASNRLYGRTWYDFNESDYWGQGTQVTVSSGGGGSGGGSELVVTQEPSLTVSPGGTVTLTCRSSNGAVTSSNYANWVQQKPGQAPRGLIGGTNKRAPGTPARFSGSLLGGKAALTLSGVQPEDEAVYYCALWYPNLWVFGGGTKLTVLSESATPESGPGTSPGATPESGPGTSESATPEVQLLESGGGIVQPGGSLKLSCAASGFTFNTYAMNWVRQAPGKGLEWVARIRSKYNNYATYYADSVKDRFTISRDDSKNTVYLQMNNLKTEDTAVYYCVRHENFGNSYVSWFAHWGQGTLVTVSSGTATPESGPGEAGRSANHTPAG
notes: unmasked TCE released from this paTCE; also called PSMA.119-CD3.23 uTCE
Kd [3]: 40 nM | Kd (human CD3 epsilon): 34.8 nM | Kd (human PSMA [4]): 6.2 nM | Kd (cynomolgus monkey PSMA): 47.5 nM

B5: P01G03R3 (VHH)
VHH: EVQLVESGGGLVQAGGSLRLSCVVSGIAFSPYHMAWYRQAPGKQHEWVAVITTGGTTAYNETVEGRFSISRDNARSTVYLQMNSLKPEDTAVYYCNIYGLSLKWGQGTQVTVSS
binding result [5]: binds

B6: P01E02R3 (VHH)
VHH: EVQLVESGGGLVQAGGSLKLSCVANGPTFSTYAMAWFRQAPGKEHEFVAAITGDGDTTNNADSVKGRFTISRDNAKNRVYLQLNSLKPEDTAAYYCAAGVHHTYTIPRLWLYWGQGTQVTVSS
binding result [5]: binds

B7: CB01B02R3 (VHH)
VHH: QVQLVESGGGLVQAGDSLRLSCVTSGRTFDVYAMGWFRQAPGKERELVAAINWSGSNKFHADSVKGRFTISRDNAWKTLSLQMNSLKPEDTAVYFCAASTRLYGTTWYEFNDSDYWGQGTQVTVSS
notes: also called PSMA.3
binding result [5]: binds

B8: AMX-500(1x-C) (bispecific antibody)
chain: ASSATPESGPGTSTEPSEGSAPGTSESATPESGPGSGPGTSESATPGTSESATPESGPGSEPATSGSETPGTSESATPESGPGTSTEPSEGSAPGSPAGSPTSTEEGTSESATPESGPGSEPATSGSETPGTSESATPESGPGSPAGSPTSTEEGSPAGSPTSTEEGTSTEPSEGSAPGTSESATPESGPGTSESATPESGPGTSESATPESGPGSEPATSGSETPGSEPATSGSETPGSPAGSPTSTEEGTSTEPSEGSAPGTSTEPSEGSAPGSEPATSGSETPGTSESATPEAGRSASHTPAGLTGPGTSESATPESQVQLVESGGGVVQPGRSLRLSCAASGRTFGIYVWGWFRQAPGKEREFVGAMSWSGSNRKVSDSVKGRFTISRDNSKNTLYLQMNSLRAEDTAVYYCAASNKEYGRTWYDFNESDYWGQGTQVTVSSGGGGSGGGSELVVTQEPSLTVSPGGTVTLTCRSSNGAVTSSNYANWVQQKPGQAPRGLIGGTNKRAPGTPARFSGSLLGGKAALTLSGVQPEDEAVYYCALWYPNLWVFGGGTKLTVLSESATPESGPGTSPGATPESGPGTSESATPEVQLVESGGGIVQPGGSLRLSCAASGFTFSTYAMNWVRQAPGKGLEWVGRIRTKRNNYATYYADSVKGRFTISRDDSKNTVYLQMNSLKTEDTAVYYCVRHENFGNSYVSWFAHWGQGTLVTVSSGTATPESGPGEAGRSASHTPAGLTGPATPESGPGTSESATPESGPGSPAGSPTSTEEGTSESATPESGPGSEPATSGSETPGTSESATPESGPGTSTEPSEGSAPGTSTEPSEGSAPGTSTEPSEGSAPGTSTEPSEGSAPGTSTEPSEGSAPGTSTEPSEGSAPGSPAGSPTSTEEGTSTEPSEGSAPGTSESATPESGPGSEPATSGSETPGTSESATPESGPGSEPATSGSETPGTSESATPESGPGTSTEPSEGSAPGTSESATPESGPGSPAGSPTSTEEGSPAGSPTSTEEGSPAGSPTSTEEGTSESATPESGPGTSTEPSEGSAPGTSESATPESGPGSEPATSGSETPGTSESATPESGPGSEPATSGSETPGTSESATPESGPGTSTEPSEGSAPGSPAGSPTSTEEGTSESATPESGPGSEPATSGSETPGTSESATPESGPGSPAGSPTSTEEGSPAGSPTSTEEGTSTEPSEGSAPGTSESATPESGPGTSESATPESGPGTSPSATPESGPGSEPATSGSETPGSEPATSGSETPGSPAGSPTSTEEGTSTEPSEGSAPGTSTEPSEGSAPGSEPATSGSETPGTSESAGEPEA
Kd (human PSMA [6]): 353 nM | Kd (Human CD3): 34.4 nM | Kd (Cyno CD3): 26.7 nM

B9: CB01A01R3 (VHH)
VHH: EVQLVESGGGLVQAGGSLRISCTASERSVSTYTKGWFRQAPGKERHLVAAISYNGDTTYYSDSVKGRFTISRDNVKNTVNLQMNSLKPEDTAVYFCAARGSSWLYGTWDDYHYWGQGTQVTVSS
binding result [5]: binds

B11: CB01H01R3 (VHH)
VHH: EVQLVESGGGSVQAGGSLSLSCVASGRTFGIYVMGWFRQAPGKEREFVAAISWSGSNRLVSDSVKGRFTISRENAKNTIYLQMNGLKPEDTANYFCAASNRLYGRTWYDFNESDYWGQGTQVTVSS
notes: also called PSMA.2
binding result [5]: binds

B12: P01C01R3 (VHH)
VHH: QVQLVESGGGLVQAGGSLRLSCAASGRTVNSYAMGWFRQAPGKEREFVASQSWMGAITYDADYADSVKGRFTISRDNAKNTLYLQMNSLKPEDTAVYRCAASRQARPGLHVREYDVWGQGTQVTVSS
binding result [5]: binds

The remaining lines, values ahead:

Kd (human PSMA-Fc [1]): 2.4 nM | koff (human PSMA-Fc [1]): 0.00018 s⁻¹ | kon (human PSMA-Fc [1]): 76000 M⁻¹ s⁻¹ | Kd (human PSMA-Fc [2]): 2.4 nM
B1: uTCE of AC3356 (bispecific antibody)
chain: LTGPATSGSETPGTQVQLVESGGGVVQPGRSLRLSCAASGRTFGIYVMGWVRQAPGKEREFVAAISWSGSNRLVSDSVKGRFTISRDNSKNTLYLQMNSLRAEDTAVYYCAASNRLYGRTWYDFNESDYWGQGTQVTVSSGGGGSGGGSEVQLLESGGGIVQPGGSLKLSCAASGFTFNTYAMNWVRQAPGKGLEWVARIRSKYNNYATYYADSVKDRFTISRDDSKNTVYLQMNNLKTEDTAVYYCVRHENFGNSYVSWFAHWGQGTLVTVSSGATPPETGAETESPGETTGGSAESEPPGEGELVVTQEPSLTVSPGGTVTLTCRSSNGAVTSSNYANWVQQKPGQAPRGLIGGTNKRAPGTPARFSGSLLGGKAALTLSGVQPEDEAVYYCALWYPNLWVFGGGTKLTVLGTAEAASASGEAGRSANHTPAG
notes: unmasked TCE of this paTCE; CD3.23 in VH-VL order; also called PSMA.5 (domain swap)

Kd (human PSMA-Fc [1]): 2.1 nM | koff (human PSMA-Fc [1]): 0.00022 s⁻¹ | kon (human PSMA-Fc [1]): 110000 M⁻¹ s⁻¹ | Kd (human PSMA-Fc [2]): 2.1 nM
B2: uTCE of AC3353 (bispecific antibody)
chain: LTGPATSGSETPGTQVQLVESGGGVVQPGRSLRLSCAASGRTFGIYVMGWVRQAPGKEREFVAAISWSGSNRLVSDSVKGRFTISRDNSKNTLYLQMNSLRAEDTAVYYCAASNRLYGRTWYDFNESDYWGQGTQVTVSSGGGGSELVVTQEPSLTVSPGGTVTLTCRSSNGAVTSSNYANWVQQKPGQAPRGLIGGTNKRAPGTPARFSGSLLGGKAALTLSGVQPEDEAVYYCALWYPNLWVFGGGTKLTVLGATPPETGAETESPGETTGGSAESEPPGEGEVQLLESGGGIVQPGGSLKLSCAASGFTFNTYAMNWVRQAPGKGLEWVARIRSKYNNYATYYADSVKDRFTISRDDSKNTVYLQMNNLKTEDTAVYYCVRHENFGNSYVSWFAHWGQGTLVTVSSGTAEAASASGEAGRSANHTPAG
notes: unmasked TCE of this paTCE; 5-residue VHH-scFv linker; also called PSMA.5 (5 mer)

Kd (human PSMA-Fc [1]): 3.5 nM | koff (human PSMA-Fc [1]): 0.00027 s⁻¹ | kon (human PSMA-Fc [1]): 77000 M⁻¹ s⁻¹ | Kd (human PSMA-Fc [2]): 3.5 nM
B4: uTCE of AC3354 (bispecific antibody)
chain: LTGPATSGSETPGTQVQLVESGGGVVQPGRSLRLSCAASGRTFGIYVMGWVRQAPGKEREFVAAISWSGSNRLVSDSVKGRFTISRDNSKNTLYLQMNSLRAEDTAVYYCAASNRLYGRTWYDFNESDYWGQGTQVTVSSGATPPETGAETESPGELVVTQEPSLTVSPGGTVTLTCRSSNGAVTSSNYANWVQQKPGQAPRGLIGGTNKRAPGTPARFSGSLLGGKAALTLSGVQPEDEAVYYCALWYPNLWVFGGGTKLTVLGATPPETGAETESPGETTGGSAESEPPGEGEVQLLESGGGIVQPGGSLKLSCAASGFTFNTYAMNWVRQAPGKGLEWVARIRSKYNNYATYYADSVKDRFTISRDDSKNTVYLQMNNLKTEDTAVYYCVRHENFGNSYVSWFAHWGQGTLVTVSSGTAEAASASGEAGRSANHTPAG
notes: unmasked TCE of this paTCE; 15-residue VHH-scFv linker; also called PSMA.5 (15 mer)

Kd (human PSMA-Fc [7]): 5.6 nM | koff (human PSMA-Fc [7]): 0.000479 s⁻¹ | kon (human PSMA-Fc [7]): 86600 M⁻¹ s⁻¹ | Kd (human PSMA-Fc [2]): 5.6 nM
B10: uTCE of AC3342 (bispecific antibody, V domains shown)
VH: QVQLVESGGGVVQPGRSLRLSCAASGRTFGIYVMGWVRQAPGKEREFVAAISWSGSNRLVSDSVKGRFTISRDNSKNTLYLQMNSLRAEDTAVYYCAASNKLYGRTWYDFNESDYWGQGTQVTVSS
notes: VHH in uTCE with CD3.23 scFv (VL-VH), 9-residue linker; also called PSMA.132; R101K
